experiment: yeast display, Sf9 membrane polyspecificity reagent, FACS + sequencing; frameworks hold sequencing errors
Outline: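 Nanobodies came from a synthetic yeast display library in Saccharomyces cerevisiae BJ5465, induced with galactose for 36–48 hours and stained for 1 hour at 4 °C with 10% biotinylated, detergent-solubilized Sf9 membrane reagent. Cells were enriched on streptavidin microbeads and then FACS-sorted, with low and high (top ~1%) gates set on anti-HA fluorescence for expression and streptavidin fluorescence for reagent binding. Each polyreactivity label reflects the gate a clone came from. Genes were amplified by colony PCR, sequenced by MiSeq 2 × 250 and filtered by CDR length.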

Sequence	polyreactivity (PSR sort gate)
QLQRVESGGGLVQAGGSLRLSCAASGSIFSPYAMGWYRQAPGKERELVAAISTRGGNTYYADSVKGRFTISRDNAKNTVYLQMNSLKPEDTAVYYCARKIRREGRYDYWGQGTQVTVSS	high polyreactivity
QVELVESAGGLVQAGGSLRLSCAGSGSTFEYNAMGWYRQGPGKERELVASSTNYADSVKGRFTISRDNAKNTVYLKMNSLKPEDTAVYYCAREQGVNRYHDYWGQGTQVTVSS	low polyreactivity
QVELVESGGGLVQAGGSLRLSCAASGITLRHYTMGWYRQAPGKVRELVATISRSGGRTYYADSVKGRFTISRDIAKNTVYLQMNSLKPEDTAFYYCARQFWRHWYGYWGQGTQVTVSS	high polyreactivity
QVELVESGGGLVQAGGSLRLSCAASGYTFRFNAMGWYRQAPGKEREFVAAIDFGGAGTYYADSVKGRFTISRDNAKNTVYLQMNSLKPEDTAVYYCNARDGVTTEFDYWGQGTQVTVSS	low polyreactivity
QVELVESGGGLVQPGGRLRLSCAASGFTFNYYAMGWYRQAPGKEREFVAAISRGGGRTYYADSVKGRFTISRDNAKNTVYLQMNSLKPEDTAVYYCAAQSVPYAYRLASYDYWGQGTQVTVSS	high polyreactivity
QVELVVSGGGLVQAGGSLRLSCAAYGSIFLGNAMGWYRQAPGKEREFVAGIRGSAGTTSYADSVKGRFTISRDNAKNPGYLQMNSLKPEDTAVYYCAARPRHSDGYYYWGQGTEVTVSS	high polyreactivity
QVHHVESAGGLVQAGGSLRLICAASGSTFDYYAMGWYRQEPGKERELLAGIDSAGSTNYADSVKGRFTISRDNAKNTVYLQMNSVKTGTYRGLYCNVGKTITTYAFPTFDYWGQGSQVTVSS	low polyreactivity
QVHHVESGGGLVQAGGSLRLSCAASGFIFVHNAMGCYSQAPGKERELVAAIRSRGGSTYYADSVKGRFTISRDNAKNTVYLQMNRLKPEDTAGYYCAADGAVVSSSRKFGYWGQGTQVTVSS	low polyreactivity
QVHHVESGGGLVQAGGSLRLSCAASGFTLGWYAMGWYRQAPGKERELVAAISSSGGSTYYADSVKGRFTISRDNAKNTVYFQMNSLKPEDTAVYFCAASSAYYRYGYGQFDYWGQGTQVTVSS	high polyreactivity
QVHHVESGGGLVQAGGTLRLSCSASGSTFWANAMGWYRQQPGKEWEFVARITYSCGSTYYADSVKGRFTISRDNAKNTVYLQMNSLIREDTAVYYCAAELPGKLVYWGQGSQVTVSS	low polyreactivity
QVHIVDSCGGLVKAGGSLRLSSAASGSIFHPYTMVWYRQAPGKEMELVAGISQSTDSTYYADSLKGRFTISRDYAKTTVYFQMISLKPEDTAVYYCNRVYDLPLSVVEVDYWGQGTQVTVSS	low polyreactivity
QVHIVESGEVIVQAGGSLRLSCDASGFTIIQYAMGWYRQAPGKERELVAAISVSGGSTYYADSVKGRFTISRDNAKNTVYLQMNSLKTEDTAVYYCATYGFHSIGSIFEYEYWGQGTQVTVSS	high polyreactivity
QVHIVESGGGLVQAGGSLRLSCAASGFTFFSNAMGWYRQAPGKQRELVASISASGSGTYYAVSVKGRFTISRDNAKNTFYLQMNSLKPDDTAVYYCSTRVGKILTTKYGYWGQGTQVSVSS	high polyreactivity
QVHLEESGGCLVQAGGSLRLSCAASGLFARNAMGWYRQAPGKERELVAAINRSGGSTYYADSVKGPFTISRDNAKNTVYLQMKSLKPEDTAVYYCNQAFTHTKDLSPIAYEYVFWGQGTQVTVSS	low polyreactivity
QVHLEESGGGLVQAGGSLRLSWAASGATFSNYTMGWDRQAPGNERELVAAISRTGGSTYYADSVNGRFTISRDNAKNHVYLQISSLEPEDNAVYYCAAICYVGRYYYWGQGNQVTVSS	high polyreactivity
QVHLLDSVGGLVQAGGSLRLSCAACGRIVGTNAMGWYRQAPGKERELVATITRGGGNTYYADSVKGRFTISRDNAKNTVYLQLNSLKPEDTAGYDCAAKFHRFAWYSHYAYWGQGTQVTVSS	low polyreactivity

Sequence	polyreactivity (PSR sort gate)
QVHLLESGGGLVQAGGSLRLSCAASGRTFYDYTMGWYRQAPGKERELVAVISKRGGSTYYADSVKGRFTISRDNAKNTVYLQMNSLKPEDTAVYYCAAKSGRNVYQKVDYWGQGTQVTVSS	high polyreactivity
QVHLQESGDGLVQPVGSQRLSCAASGYISGNYYMGWYRQAPGTERELVAGIDAFGSSTNYADCVKGRFTISRYNAKNSVYLQMYRLKPEDTAVYYCAAPPDGDRLFSYWGQGTQVTVSS	low polyreactivity
QVHLQESGGGLVQAGGSLRLSCAASGNIVDADIMGWYRQAPGKERELVASITDGGSTNYADSVKGRFTISRDNAKNTVYLQMNSLKPEDTAVYYCAAIGYPDIPTYFDYDSEYFYWGQGTQVTVSS	low polyreactivity
QVHLQESGGGLVQAGGSLRLSCAASGNNSPVGVLGRYRQAPGKERELVATINFGGSSYYADSVKGRFTISRDNAKNTVYLQMNSLKREDTAVYYFAYCGQGTQVTVSS	low polyreactivity
QVHLQESGVVLMQARGNLRMSCAASGYISTQYHMDWYRQAPGKERELVARIDYGAITNYADSVKGRFTIRRDNAKNTVYLQMTSLKPEDTAVYYCAVYSGDDYYHDYWGHGTQVTVSS	low polyreactivity
QVHLQESRGGLVQAGGSLRLSCAASGIIFDNPNMGCYRQAPGKERELVATINSGATTNYADSVKGRFTISRDNAKNTVYLQMNSLIPEDTAVYYCAVDLSPTYFYYWGQGTQVTVSS	high polyreactivity
QVHLVASGGGLVQAGGSLRLRCAASGFTIDTYAKGWYRQAPGKERDLVAGISWSGGSTYYADSVKGRFTISRDNAKNTVYLQRNSLNPEDTAVYYCAADYAGYPGRTRQRPGYDYWGQGTQVTVSS	low polyreactivity
QVHLVDSAGGLVQAGGSLRLSCAASGNIFDYNGMGWYRQAPGKERELVAGINWSGGSTYYADSVKGRFTISRDNAKNTVYLQMNSLTPEDTAVYYCAAECVYDWYPFWRAIYTYDYWGQGTQVTVSS	low polyreactivity
QVHLVDSCGALVQAGGSLSIRCAASGLTIYRYAKGWNRQEPRKETEVVAAISSADRTYYADSVKGRFTISRDNAKNTVYLQMNSLKPEDTAVYYCAARANYFGWTKSYYYWGQGTQVTVSS	high polyreactivity
QVHLVDSGAGLVQAGGSLRLSCAASGYTFYANAMGWYRQAPGKERELVAGINRSGSTYYADSVKGRFTISRDNAKNTVYLQMNSLKPEDTAVYYCATAWHRGVRGRTSGAFDYWGQGTQVTVSS	high polyreactivity
QVHLVDSGGGLVQAGGILRLSCPATGSIFVYNTMGWYRQAPGKERELVADITSGTSTYYADSVKGRFTISRDNAKNTVYLQMNSLKPEDTAVYYSAAERWYKYYAYDYWGQGTQVTVSS	low polyreactivity
QVHLVDSGGGLVQAGGSLRLSCAASGRIYYVYAMGGYRQAPGQERELVAGITSTGGSTYYADSVKGRFTISRDNAKSTVYLQINRLNPVDTAVYYGATDYGYYDYWGQGTQVTVSS	low polyreactivity
QVHLVDSGGGLVQAGGSLRLSCAASGSTIKTYTKGWYRQAPGKERELVAGITSGVSTSYADSVKGRFTISRDNAKNTVYLQMNSLKPEDTAVYYCNADAYLVIYFYTVRDYGYDYWGQGTQVTVSS	low polyreactivity
QVHLVDSGGGLVQAGGSLRLTCAASGITFYRYAMGWYRQAPWKERELVAAITGGGRTYYADSVKGRFTISRDNAKNTVYLQMNSLKPEDTAVYYCNVRTLHSVRGYDYWGQGTQVTVSS	high polyreactivity
QVHLVESAGCLVQAGGSLRLSCAASGSIIYLYAMGWYRQAPGKERELVAAISSGGSTNYADSVKGRFTISRDNAKNSVYLQMNSLKPEDTAVYYCAATLPGWYNEYDSWGQGTQVTVSS	low polyreactivity
QVHLVESDGGLVQAGGSLRLSCAASGIIFGYYVMGWYRQAPGKERELVASITSGGSTNYADSVKGRYTISRDNAKNTVYLQMNSLIPEYTAVYYCATDEPVGRYKHNYYWGQGTKVTVSS	low polyreactivity
